# Assay results from paper doi:10.1101/2022.05.24.493251.
# T1: Npl3 RRM1 (Saccharomyces cerevisiae, UniProt Q01560 114-201)
# T1 sequence: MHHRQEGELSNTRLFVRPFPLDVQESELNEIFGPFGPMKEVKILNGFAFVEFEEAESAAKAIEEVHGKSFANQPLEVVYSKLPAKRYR
# B1: polyC 6mer (ssDNA)
# DNA: CCCCCC
# B2: polyA 6mer (ssDNA)
# DNA: AAAAAA
# B3: polyT 6mer (ssDNA)
# DNA: TTTTTT
# B4: polyG 6mer (ssDNA)
# DNA: GGGGGG
# Target: T1, Npl3 RRM1
# Experiment: NMR titration
row,Binder,binding result
1,B1,binds
2,B2,no binding
3,B3,no binding
4,B4,no binding
